According to publication PMC8869672:

Molecular target: T1, NADPH-cytochrome P450 reductase (human (endogenous in human liver microsomes)) (UniProt P16435)
T1 sequence: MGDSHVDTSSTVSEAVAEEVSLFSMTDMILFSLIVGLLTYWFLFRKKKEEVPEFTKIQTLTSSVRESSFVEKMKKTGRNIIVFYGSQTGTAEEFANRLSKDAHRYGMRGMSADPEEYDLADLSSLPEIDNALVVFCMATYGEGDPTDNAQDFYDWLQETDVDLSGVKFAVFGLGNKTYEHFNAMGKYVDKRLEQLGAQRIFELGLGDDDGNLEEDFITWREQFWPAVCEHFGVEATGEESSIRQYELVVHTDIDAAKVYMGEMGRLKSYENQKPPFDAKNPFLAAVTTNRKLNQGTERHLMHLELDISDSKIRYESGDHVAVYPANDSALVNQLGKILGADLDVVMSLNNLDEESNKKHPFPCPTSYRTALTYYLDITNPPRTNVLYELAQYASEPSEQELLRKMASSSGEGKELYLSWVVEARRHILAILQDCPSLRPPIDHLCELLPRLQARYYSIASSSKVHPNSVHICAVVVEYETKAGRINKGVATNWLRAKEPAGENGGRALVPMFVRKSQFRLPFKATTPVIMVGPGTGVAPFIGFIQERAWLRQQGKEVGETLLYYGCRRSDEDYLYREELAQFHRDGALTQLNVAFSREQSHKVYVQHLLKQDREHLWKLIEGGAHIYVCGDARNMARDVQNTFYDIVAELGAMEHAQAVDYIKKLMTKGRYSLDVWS

C-terminally His-tagged and N-terminally truncated Δ3–20 CYP2E1 modified with benzophenone-4-maleimide (BPM) or 4-(N-succinimidylcarboxy)benzophenone (BPS) (from UniProt P05181 1-493) (enzyme)
Vmax of 7-EFC deethylation by CYP2E1-BPM incorporated into insect cell microsomes with cDNA-expressed human CPR and cytochrome b5 (SS(CPR+b5)2E1-BPM), normalised per CPR: 0.104 s⁻¹ | Vmax of 7-EFC deethylation by CYP2E1-BPS incorporated into insect cell microsomes with cDNA-expressed human CPR and cytochrome b5 (SS(CPR+b5)2E1-BPS), normalised per CPR: 1.51 s⁻¹
